T1: FcgRIIaR (human, UniProt P12318 34-217)
T1 construct: extracellular domain; also called FcγRIIa R type; FcγRIIa (R type)
T1 sequence (looked up): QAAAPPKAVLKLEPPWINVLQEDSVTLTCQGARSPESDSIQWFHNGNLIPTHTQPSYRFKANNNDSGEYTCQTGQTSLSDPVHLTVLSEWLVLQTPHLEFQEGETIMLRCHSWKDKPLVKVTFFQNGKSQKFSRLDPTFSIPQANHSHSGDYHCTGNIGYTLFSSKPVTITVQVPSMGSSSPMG

T2: FcgRIIb (human, UniProt P31994 43-217)
T2 construct: extracellular domain; also called FcγRIIb
T2 sequence (looked up): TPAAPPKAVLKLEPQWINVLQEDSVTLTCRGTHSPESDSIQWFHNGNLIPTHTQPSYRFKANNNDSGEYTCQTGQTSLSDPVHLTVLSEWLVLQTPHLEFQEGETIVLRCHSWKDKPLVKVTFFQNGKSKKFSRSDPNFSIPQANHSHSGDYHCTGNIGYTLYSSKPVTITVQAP


What was measured:
FcgRIIaR = biological target: T1, FcgRIIaR; assay: SPR, amount bound per captured antibody
FcgRIIb = biological target: T2, FcgRIIb; assay: SPR, amount bound per captured antibody
human complement C1q = biological target: T3, human complement C1q (human, UniProt P02745 23-245; P02746 28-253; P02747 29-245); assay: SPR, C1q bound per antibody captured on Protein L
T3 construct: Bought (PROSPEC or Calbiochem); also called human C1q
T3 sequence (P02745 23-245 limits assumed, chain 1 of 3): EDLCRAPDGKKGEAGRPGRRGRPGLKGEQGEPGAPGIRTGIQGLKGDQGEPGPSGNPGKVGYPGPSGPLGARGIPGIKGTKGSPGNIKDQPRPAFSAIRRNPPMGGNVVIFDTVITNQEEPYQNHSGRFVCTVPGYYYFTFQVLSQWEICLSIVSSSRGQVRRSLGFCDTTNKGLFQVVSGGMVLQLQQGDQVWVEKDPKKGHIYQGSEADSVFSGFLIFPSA
T3 sequence (P02746 28-253 limits assumed, chain 2 of 3): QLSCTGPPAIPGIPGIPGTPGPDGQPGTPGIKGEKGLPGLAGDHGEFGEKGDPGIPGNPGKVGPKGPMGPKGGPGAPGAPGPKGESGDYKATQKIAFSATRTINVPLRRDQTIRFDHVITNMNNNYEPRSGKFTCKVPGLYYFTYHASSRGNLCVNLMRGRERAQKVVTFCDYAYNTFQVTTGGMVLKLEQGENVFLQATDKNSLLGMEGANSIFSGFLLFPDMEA
T3 sequence (P02747 29-245 limits assumed, chain 3 of 3): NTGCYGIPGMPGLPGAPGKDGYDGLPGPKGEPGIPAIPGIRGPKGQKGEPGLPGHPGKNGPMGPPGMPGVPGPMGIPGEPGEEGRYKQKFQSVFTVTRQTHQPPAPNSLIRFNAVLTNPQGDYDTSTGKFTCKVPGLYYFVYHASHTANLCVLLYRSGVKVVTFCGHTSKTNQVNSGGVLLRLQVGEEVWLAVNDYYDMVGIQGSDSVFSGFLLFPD
In short: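 Antibodies captured on Protein L immobilized on a CM4 chip were exposed to human C1q diluted in HBS-EP+ running buffer at 25° C. C1q binding was normalized as C1q bound divided by antibody captured. The surface was regenerated with 10 mM glycine-HCl, pH 1.5.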

Binder | Relative FcgRIIaR-binding Activity (FcgRIIaR) [IL6R-G1d/IL6R-L=100] | Relative FcgRIIb-binding Activity (FcgRIIb) [IL6R-G1d/IL6R-L=100] | Amount of C1q-binding when that for G1d is Defined as 100 (human complement C1q) [G1d=100]
IL6R-P755/IL6R-L (antibody, human IgG1, kappa) heavy: QVQLQESGPGLVKPSETLSLTCAVSGHSISHDHAWSWVRQPPGEGLEWIGFISYSGITNYNPSLQGRVTISRDNSKNTLYLQMNSLRAEDTAVYYCARSLARTTAMDYWGEGTLVTVSSASTKGPSVFPLAPSSKSTSGGTAALGCLVKDYFPEPVTVSWNSGALTSGVHTFPAVLQSSGLYSLSSVVTVPSSSLGTQTYICNVNHKPSNTKVDKKVEPKSCDKTHTCPPCPAPELLGQDSVMLFPPKPKDTLMISRTPEVTCVVVDVSPEDPEVKFNWYVDGVEVHNAKTKPREEQENSTYRVVSVLTVLHQDWLNGKEYKCEVHNKALPHPIEKTISKAKGQPREPQVYTLPPSRDELTKNQVSLTCLVKGFYPSDIAVEWESNGQPENNYKTTPPVLDSDGSFFLYSKLTVDKSRWQQGNVFSCSVMHEALHNHYTQKSLSLSP light: not shown | 9.8 | 130 | 14.4
IL6R-P757/IL6R-L (antibody, human IgG1, kappa) heavy: QVQLQESGPGLVKPSETLSLTCAVSGHSISHDHAWSWVRQPPGEGLEWIGFISYSGITNYNPSLQGRVTISRDNSKNTLYLQMNSLRAEDTAVYYCARSLARTTAMDYWGEGTLVTVSSASTKGPSVFPLAPSSKSTSGGTAALGCLVKDYFPEPVTVSWNSGALTSGVHTFPAVLQSSGLYSLSSVVTVPSSSLGTQTYICNVNHKPSNTKVDKKVEPKSCDKTHTCPPCPAPELLGGDSVFLFPPKPKDTLMISRTPEVTCVVIDVAEEDGEVKFNWYVDGVEVHNAKTKPREEQYNSTYRVVSVLTVLHQDWLNGKEYKCKVSNKGLPSSIEKTISKAKGQPREPQVYTLPPSRDELTKNQVSLTCLVKGFYPSDIAVEWESNGQPENNYKTTPPVLDSDGSFFLYSKLTVDKSRWQQGNVFSCSVMHEALHNHYTQKSLSLSP light: not shown | 89.2 | 327 | 22.6
IL6R-P756/IL6R-L (antibody, human IgG1, kappa) heavy: QVQLQESGPGLVKPSETLSLTCAVSGHSISHDHAWSWVRQPPGEGLEWIGFISYSGITNYNPSLQGRVTISRDNSKNTLYLQMNSLRAEDTAVYYCARSLARTTAMDYWGEGTLVTVSSASTKGPSVFPLAPSSKSTSGGTAALGCLVKDYFPEPVTVSWNSGALTSGVHTFPAVLQSSGLYSLSSVVTVPSSSLGTQTYICNVNHKPSNTKVDKKVEPKSCDKTHTCPPCPAPDLLGGDSVFLFPPKPKDTLMISRTPEVTCVVIDVAEEDGEVKFNWYVDGVEVHNAKTKPREEQYNSTYRVVSVLTVLHQDWLNGKEYKCKVSNKGLPSSIEKTISKAKGQPREPQVYTLPPSRDELTKNQVSLTCLVKGFYPSDIAVEWESNGQPENNYKTTPPVLDSDGSFFLYSKLTVDKSRWQQGNVFSCSVMHEALHNHYTQKSLSLSP light: not shown | 92.4 | 323 | 15
IL6R-P759/IL6R-L (antibody, human IgG1, kappa) heavy: QVQLQESGPGLVKPSETLSLTCAVSGHSISHDHAWSWVRQPPGEGLEWIGFISYSGITNYNPSLQGRVTISRDNSKNTLYLQMNSLRAEDTAVYYCARSLARTTAMDYWGEGTLVTVSSASTKGPSVFPLAPSSKSTSGGTAALGCLVKDYFPEPVTVSWNSGALTSGVHTFPAVLQSSGLYSLSSVVTVPSSSLGTQTYICNVNHKPSNTKVDKKVEPKSCDKTHTCPPCPAPDLLGDDSVFLFPPKPKDTLMISRTPEVTCVVVDVSDEDGEVKFNWYVDGVEVHNAKTKPREEQYNSTYRVVSVLTVLHQDWLNGKEYKCKVSNKGLPSSIEKTISKAKGQPREPQVYTLPPSRDELTKNQVSLTCLVKGFYPSDIAVEWESNGQPENNYKTTPPVLDSDGSFFLYSKLTVDKSRWQQGNVFSCSVMHEALHNHYTQKSLSLSP light: not shown | 96.5 | 305 | 14.5
IL6R-P758/IL6R-L (antibody, human IgG1, kappa) heavy: QVQLQESGPGLVKPSETLSLTCAVSGHSISHDHAWSWVRQPPGEGLEWIGFISYSGITNYNPSLQGRVTISRDNSKNTLYLQMNSLRAEDTAVYYCARSLARTTAMDYWGEGTLVTVSSASTKGPSVFPLAPSSKSTSGGTAALGCLVKDYFPEPVTVSWNSGALTSGVHTFPAVLQSSGLYSLSSVVTVPSSSLGTQTYICNVNHKPSNTKVDKKVEPKSCDKTHTCPPCPAPELLGDDSVFLFPPKPKDTLMISRTPEVTCVVVDVSDEDGEVKFNWYVDGVEVHNAKTKPREEQYNSTYRVVSVLTVLHQDWLNGKEYKCKVSNKGLPSSIEKTISKAKGQPREPQVYTLPPSRDELTKNQVSLTCLVKGFYPSDIAVEWESNGQPENNYKTTPPVLDSDGSFFLYSKLTVDKSRWQQGNVFSCSVMHEALHNHYTQKSLSLSP light: not shown | 90.6 | 285 | 2
IL6R-P760/IL6R-L (antibody, human IgG1, kappa) heavy: QVQLQESGPGLVKPSETLSLTCAVSGHSISHDHAWSWVRQPPGEGLEWIGFISYSGITNYNPSLQGRVTISRDNSKNTLYLQMNSLRAEDTAVYYCARSLARTTAMDYWGEGTLVTVSSASTKGPSVFPLAPSSKSTSGGTAALGCLVKDYFPEPVTVSWNSGALTSGVHTFPAVLQSSGLYSLSSVVTVPSSSLGTQTYICNVNHKPSNTKVDKKVEPKSCDKTHTCPPCPAPELLGDDSVFLFPPKPKDTLMISRTPEVTCVVVDVSEEDGEVKFNWYVDGVEVHNAKTKPREEQYNSTYRVVSVLTVLHQDWLNGKEYKCKVSNKGLPSSIEKTISKAKGQPREPQVYTLPPSRDELTKNQVSLTCLVKGFYPSDIAVEWESNGQPENNYKTTPPVLDSDGSFFLYSKLTVDKSRWQQGNVFSCSVMHEALHNHYTQKSLSLSP light: not shown | 97.1 | 304 | 21.7
IL6R-P762/IL6R-L (antibody, human IgG1, kappa) heavy: QVQLQESGPGLVKPSETLSLTCAVSGHSISHDHAWSWVRQPPGEGLEWIGFISYSGITNYNPSLQGRVTISRDNSKNTLYLQMNSLRAEDTAVYYCARSLARTTAMDYWGEGTLVTVSSASTKGPSVFPLAPSSKSTSGGTAALGCLVKDYFPEPVTVSWNSGALTSGVHTFPAVLQSSGLYSLSSVVTVPSSSLGTQTYICNVNHKPSNTKVDKKVEPKSCDKTHTCPPCPAPELLGGDSVFLFPPKPKDTLMISRTPEVTCVVVDVSHEDGEVKFNWYVDGVEVHNAKTKPREEQYNSTYRVVSVLTVLHQDWLNGKEYKCKVSNKGLPSSIEKTISKAKGQPREPQVYTLPPSRDELTKNQVSLTCLVKGFYPSDIAVEWESNGQPENNYKTTPPVLDSDGSFFLYSKLTVDKSRWQQGNVFSCSVMHEALHNHYTQKSLSLSP light: not shown | 75.8 | 252 | 14.6
IL6R-P761/IL6R-L (antibody, human IgG1, kappa) heavy: QVQLQESGPGLVKPSETLSLTCAVSGHSISHDHAWSWVRQPPGEGLEWIGFISYSGITNYNPSLQGRVTISRDNSKNTLYLQMNSLRAEDTAVYYCARSLARTTAMDYWGEGTLVTVSSASTKGPSVFPLAPSSKSTSGGTAALGCLVKDYFPEPVTVSWNSGALTSGVHTFPAVLQSSGLYSLSSVVTVPSSSLGTQTYICNVNHKPSNTKVDKKVEPKSCDKTHTCPPCPAPDLLGDDSVFLFPPKPKDTLMISRTPEVTCVVVDVSEEDGEVKFNWYVDGVEVHNAKTKPREEQYNSTYRVVSVLTVLHQDWLNGKEYKCKVSNKGLPSSIEKTISKAKGQPREPQVYTLPPSRDELTKNQVSLTCLVKGFYPSDIAVEWESNGQPENNYKTTPPVLDSDGSFFLYSKLTVDKSRWQQGNVFSCSVMHEALHNHYTQKSLSLSP light: not shown | 103 | 320 | 2.1

From patent US20220411483A1 (Chugai, published 2022)
